Test in all cases: ITC
(In general: ITC needs no label: the signal is the heat of the interaction.)

Test [1] has as its target Homo sapiens NCBD (nuclear coactivator binding domain) from CREBBP (Homo sapiens (human)) (UniProt Q92793).
The target of test [2] is Strongylocentrotus purpuratus NCBD (nuclear coactivator binding domain of CREBBP/p300) (Strongylocentrotus purpuratus (purple sea urchin)).
Test [3] addresses Petromyzon marinus NCBD (nuclear coactivator binding domain of CREBBP/p300) (Petromyzon marinus (sea lamprey)).
Test [4] has as its target T1, Homo sapiens NCBD (nuclear coactivator binding domain) from CREBBP (Homo sapiens (human), UniProt Q92793 2061-2109).
T1 chain: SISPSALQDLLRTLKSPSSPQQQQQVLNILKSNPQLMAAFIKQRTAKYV

The Kd is the constant that tells how readily two partners part at equilibrium. Higher therefore signals a looser complex. As usually defined, the stoichiometry N is the number of molecules, sites or subunits per partner or assembly.

Consider “Strongylocentrotus purpuratus CID (CREBBP-binding domain of NCOA) (domain or fragment)”, for which the Kd was 4800 nM in test [1] and 7000 to 22000 nM in test [2]. Besides, the stoichiometry N in test [2] worked out at 1.7.

Consider “Homo sapiens CID (CREBBP-binding domain) from NCOA3 (ACTR) (from UniProt Q9Y6Q9 1045-1086) (domain or fragment)”, for which, in test [2], the Kd was 13000 nM.

“Petromyzon marinus CID, from the first of the two NCOA proteins (domain or fragment)” showed a Kd in test [3] of 200 nM.

“Petromyzon marinus CID, from the second of the two NCOA proteins (domain or fragment)” gave a Kd in test [3] of 200 nM.

B1: Homo sapiens CID (CREBBP-binding domain) from NCOA3 (ACTR) (domain or fragment, Homo sapiens (human))
chain: EGQSDERALLDQLHTLLSNTDATGLEEIDRALGIPELVNQGQ
B1: in test [4], binding was put at a Kd of 400 nM.

The values above are taken from PMC7314397 (Protein Science : A Publication of the Protein Society, 2020).
